{"source": "patent US20090074747A1", "about": "(IRM, published 2009)", "binders": {"B1": {"name": "NV163-1-Fab' (Fab, V domains shown)", "VH": "QVQLVQSGSELKKPGASVKVSCKASGYTFTSYGISWVRQAPGQGLEWMGWVNTNTGNPRYAQGFTGRFVFSLDTSVSTAYLQISSLKAEDTAVYYCAREGFIRTVVGAAGRFVYWGQGTLVTVSS", "VL": "DIQMTQSPSSLSASVGDRVTITCRASQDIHTRLAWYQQKPGKAPKLLIYWASTRGSGVPSRFSGSGSGTDFTLTISSLQPEDFATYYCQQYSAYPTFGQGTKLEIK"}, "B2": {"name": "NV164-1-IgG1 (antibody, V domains shown)", "VH": "B1 VH with I34M", "VL": "DIQMTQSPSSLSASVGDRVTITCRASQDIHTRLAWYQQKPGKAPKLLIYWASTLQSGVPSRFSGSGSGTDFTLTISSLQPEDFATYYCQQYSAYPTFGQGTKLEIKG"}, "B3": {"name": "NV115-3B-IgG1 (antibody, V domains shown)", "VH": "B1 VH with S9A, L11V, S31T, V37L, R103T", "VL": "B1 VL with K42Q, A43P, G55A, S60D, S65T, P80A, F83V, T85V, A93T"}, "B4": {"name": "NV164-1-Fab' (Fab, V domains shown)", "VH": "B1 VH with I34M", "VL": "B1 VL with R54L, G55Q"}}, "target": "T1, human TSLPR on cells (Ba/F3 cells stably overexpressing hTSLPR/hIL7Rα/Stat5-Luc; primary human monocytes) (human, UniProt Q9HC73 23-371)", "T1 sequence (looked up)": "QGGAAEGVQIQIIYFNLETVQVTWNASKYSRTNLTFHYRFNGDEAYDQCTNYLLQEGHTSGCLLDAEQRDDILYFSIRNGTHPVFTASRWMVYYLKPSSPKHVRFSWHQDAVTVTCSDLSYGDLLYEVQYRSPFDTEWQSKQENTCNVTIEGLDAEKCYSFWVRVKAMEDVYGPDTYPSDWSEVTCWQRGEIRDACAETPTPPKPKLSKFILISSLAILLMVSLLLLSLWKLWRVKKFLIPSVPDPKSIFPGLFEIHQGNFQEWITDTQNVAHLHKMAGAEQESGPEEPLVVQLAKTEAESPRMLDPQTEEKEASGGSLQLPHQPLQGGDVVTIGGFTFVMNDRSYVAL", "assay": "cell-based or functional assay", "note": "Where a chain is given by its changes, count along the chain named."}
{"binder": "B1", "values": [{"measurement": "IC50, luciferase reporter gene assay (Stat5-Luc)", "value": 2.7, "unit": "nM"}]}
{"binder": "B2", "values": [{"measurement": "IC50, inhibition of TARC secretion from primary human monocytes", "value": 0.011, "unit": "nM"}, {"measurement": "IC50, luciferase reporter gene assay (Stat5-Luc), natural human TSLP", "value": 0.04, "unit": "nM"}, {"measurement": "IC50, luciferase reporter gene assay (Stat5-Luc), recombinant human TSLP", "value": 0.221, "unit": "nM"}]}
{"binder": "B3", "values": [{"measurement": "IC50, inhibition of TARC secretion from primary human monocytes", "value": 0.01, "unit": "nM"}, {"measurement": "IC50, luciferase reporter gene assay (Stat5-Luc), natural human TSLP", "value": 0.05, "unit": "nM"}, {"measurement": "IC50, luciferase reporter gene assay (Stat5-Luc), recombinant human TSLP", "value": 0.126, "unit": "nM"}]}
{"binder": "B4", "values": [{"measurement": "IC50, luciferase reporter gene assay (Stat5-Luc)", "value": 4, "unit": "nM"}]}
